The target of test [1] is 人TNFα (human) (UniProt P01375). The experiment in a line: cell-based or functional assay.
The target of test [2] is 人TNFα (human) (UniProt P01375). The experiment in a line: SPR (Biacore), TNFa coupled to the chip, antibody as analyte. In general terms: In SPR one partner is held on a chip, and binding of the other changes the refractive index at the surface.

Where “and” joins values, the source holds several entries; their conditions need not be identical. Equal entries are not always repeated.

Sequence of UniProt P01375 (P01375 77-233 limits assumed): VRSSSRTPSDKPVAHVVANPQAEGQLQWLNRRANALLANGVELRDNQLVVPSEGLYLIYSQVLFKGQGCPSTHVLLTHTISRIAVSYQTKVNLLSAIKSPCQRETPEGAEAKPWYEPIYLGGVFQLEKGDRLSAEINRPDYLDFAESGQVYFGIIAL

As usually defined, the Kd is a measure of binding affinity in units of concentration. High values mean lower affinity, low ones higher affinity. With humira (antibody), in test [1], the IC50(pM), L929细胞保护试验 was 1.37 pM and 2.52 pM and 2.32 pM; the IC50(pM), L929细胞保护试验, 平均值 is 2.42 pM. In addition, the Kd in test [2] amounted to 2.01 nM.

The record behind these values is CN102127167A.
